The record followed here is PMC12680531 (2026).

This test addresses 12A8. The experiment in a line: SPR. (Surface plasmon resonance follows binding to a sensor surface in real time, without labels.)

No end group written: not given here.

By Kd is commonly meant a measure of binding affinity in units of concentration. A higher Kd goes with weaker binding. For the molecule TWGYPFHDGDYLNDE (also: biotin, position not given here, GSAGGS spacer, position not given here) [biotinylated hTM4SF4 (T126-E140) peptide containing a GSAGGS spacer], binding was characterised by a dissociation constant (Kd) of 8.34 nM.
